Source: patent publication US20250313631A1 (HUMMINGBIRD BIOSCIENCE PTE, published 2025)

Biological target: T1, mouse VISTA expressed on cells (mouse, UniProt Q9D659 33-308)
T1 construct: whole, on cells; also called murine VISTA on transfected cells; VISTA on mouse CD11b+ myeloid cells
T1 sequence (looked up): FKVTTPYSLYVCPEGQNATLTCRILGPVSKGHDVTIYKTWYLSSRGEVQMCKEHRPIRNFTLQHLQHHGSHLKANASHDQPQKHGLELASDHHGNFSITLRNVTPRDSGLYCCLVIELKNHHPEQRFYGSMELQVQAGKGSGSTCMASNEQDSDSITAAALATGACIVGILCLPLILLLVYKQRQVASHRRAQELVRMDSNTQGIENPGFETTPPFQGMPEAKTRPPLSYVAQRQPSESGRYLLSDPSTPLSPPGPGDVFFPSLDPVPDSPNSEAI
Experiment: flow cytometry on cells transfected with murine VISTA

B1: anti-VISTA clone 13D5p IgG1 (antibody, V domains shown)
VH: QVQLQQSGAELVRPGTSVKISCKASGYTFTNYWLGWVKQRPGHGLEWIGDIYPGGGYTNYNEKFKGKATLTADTSSSTAYMQLSSLTSEDSAVYFCARGGYYYGSSWYFDVWGAGTTVTVSS
VL: DVLMTQTPLSLPVSLGDQASISCRSSQSIVHSNGNTYLEWYLQKPGQSPKLLIYKVSNRFSGVPDRFSGSGSGTDFTLKISRVEAEDLGVYYCFQGSHVPPTFGGGTKLEIKR
binding result: binds
